The values below are quoted from earlier work in paper PMC11145553.

For the data set, the target named is LRP1 (Homo sapiens) (UniProt Q07954).
Sequence of LRP1 (Homo sapiens) (Q07954 20-4544): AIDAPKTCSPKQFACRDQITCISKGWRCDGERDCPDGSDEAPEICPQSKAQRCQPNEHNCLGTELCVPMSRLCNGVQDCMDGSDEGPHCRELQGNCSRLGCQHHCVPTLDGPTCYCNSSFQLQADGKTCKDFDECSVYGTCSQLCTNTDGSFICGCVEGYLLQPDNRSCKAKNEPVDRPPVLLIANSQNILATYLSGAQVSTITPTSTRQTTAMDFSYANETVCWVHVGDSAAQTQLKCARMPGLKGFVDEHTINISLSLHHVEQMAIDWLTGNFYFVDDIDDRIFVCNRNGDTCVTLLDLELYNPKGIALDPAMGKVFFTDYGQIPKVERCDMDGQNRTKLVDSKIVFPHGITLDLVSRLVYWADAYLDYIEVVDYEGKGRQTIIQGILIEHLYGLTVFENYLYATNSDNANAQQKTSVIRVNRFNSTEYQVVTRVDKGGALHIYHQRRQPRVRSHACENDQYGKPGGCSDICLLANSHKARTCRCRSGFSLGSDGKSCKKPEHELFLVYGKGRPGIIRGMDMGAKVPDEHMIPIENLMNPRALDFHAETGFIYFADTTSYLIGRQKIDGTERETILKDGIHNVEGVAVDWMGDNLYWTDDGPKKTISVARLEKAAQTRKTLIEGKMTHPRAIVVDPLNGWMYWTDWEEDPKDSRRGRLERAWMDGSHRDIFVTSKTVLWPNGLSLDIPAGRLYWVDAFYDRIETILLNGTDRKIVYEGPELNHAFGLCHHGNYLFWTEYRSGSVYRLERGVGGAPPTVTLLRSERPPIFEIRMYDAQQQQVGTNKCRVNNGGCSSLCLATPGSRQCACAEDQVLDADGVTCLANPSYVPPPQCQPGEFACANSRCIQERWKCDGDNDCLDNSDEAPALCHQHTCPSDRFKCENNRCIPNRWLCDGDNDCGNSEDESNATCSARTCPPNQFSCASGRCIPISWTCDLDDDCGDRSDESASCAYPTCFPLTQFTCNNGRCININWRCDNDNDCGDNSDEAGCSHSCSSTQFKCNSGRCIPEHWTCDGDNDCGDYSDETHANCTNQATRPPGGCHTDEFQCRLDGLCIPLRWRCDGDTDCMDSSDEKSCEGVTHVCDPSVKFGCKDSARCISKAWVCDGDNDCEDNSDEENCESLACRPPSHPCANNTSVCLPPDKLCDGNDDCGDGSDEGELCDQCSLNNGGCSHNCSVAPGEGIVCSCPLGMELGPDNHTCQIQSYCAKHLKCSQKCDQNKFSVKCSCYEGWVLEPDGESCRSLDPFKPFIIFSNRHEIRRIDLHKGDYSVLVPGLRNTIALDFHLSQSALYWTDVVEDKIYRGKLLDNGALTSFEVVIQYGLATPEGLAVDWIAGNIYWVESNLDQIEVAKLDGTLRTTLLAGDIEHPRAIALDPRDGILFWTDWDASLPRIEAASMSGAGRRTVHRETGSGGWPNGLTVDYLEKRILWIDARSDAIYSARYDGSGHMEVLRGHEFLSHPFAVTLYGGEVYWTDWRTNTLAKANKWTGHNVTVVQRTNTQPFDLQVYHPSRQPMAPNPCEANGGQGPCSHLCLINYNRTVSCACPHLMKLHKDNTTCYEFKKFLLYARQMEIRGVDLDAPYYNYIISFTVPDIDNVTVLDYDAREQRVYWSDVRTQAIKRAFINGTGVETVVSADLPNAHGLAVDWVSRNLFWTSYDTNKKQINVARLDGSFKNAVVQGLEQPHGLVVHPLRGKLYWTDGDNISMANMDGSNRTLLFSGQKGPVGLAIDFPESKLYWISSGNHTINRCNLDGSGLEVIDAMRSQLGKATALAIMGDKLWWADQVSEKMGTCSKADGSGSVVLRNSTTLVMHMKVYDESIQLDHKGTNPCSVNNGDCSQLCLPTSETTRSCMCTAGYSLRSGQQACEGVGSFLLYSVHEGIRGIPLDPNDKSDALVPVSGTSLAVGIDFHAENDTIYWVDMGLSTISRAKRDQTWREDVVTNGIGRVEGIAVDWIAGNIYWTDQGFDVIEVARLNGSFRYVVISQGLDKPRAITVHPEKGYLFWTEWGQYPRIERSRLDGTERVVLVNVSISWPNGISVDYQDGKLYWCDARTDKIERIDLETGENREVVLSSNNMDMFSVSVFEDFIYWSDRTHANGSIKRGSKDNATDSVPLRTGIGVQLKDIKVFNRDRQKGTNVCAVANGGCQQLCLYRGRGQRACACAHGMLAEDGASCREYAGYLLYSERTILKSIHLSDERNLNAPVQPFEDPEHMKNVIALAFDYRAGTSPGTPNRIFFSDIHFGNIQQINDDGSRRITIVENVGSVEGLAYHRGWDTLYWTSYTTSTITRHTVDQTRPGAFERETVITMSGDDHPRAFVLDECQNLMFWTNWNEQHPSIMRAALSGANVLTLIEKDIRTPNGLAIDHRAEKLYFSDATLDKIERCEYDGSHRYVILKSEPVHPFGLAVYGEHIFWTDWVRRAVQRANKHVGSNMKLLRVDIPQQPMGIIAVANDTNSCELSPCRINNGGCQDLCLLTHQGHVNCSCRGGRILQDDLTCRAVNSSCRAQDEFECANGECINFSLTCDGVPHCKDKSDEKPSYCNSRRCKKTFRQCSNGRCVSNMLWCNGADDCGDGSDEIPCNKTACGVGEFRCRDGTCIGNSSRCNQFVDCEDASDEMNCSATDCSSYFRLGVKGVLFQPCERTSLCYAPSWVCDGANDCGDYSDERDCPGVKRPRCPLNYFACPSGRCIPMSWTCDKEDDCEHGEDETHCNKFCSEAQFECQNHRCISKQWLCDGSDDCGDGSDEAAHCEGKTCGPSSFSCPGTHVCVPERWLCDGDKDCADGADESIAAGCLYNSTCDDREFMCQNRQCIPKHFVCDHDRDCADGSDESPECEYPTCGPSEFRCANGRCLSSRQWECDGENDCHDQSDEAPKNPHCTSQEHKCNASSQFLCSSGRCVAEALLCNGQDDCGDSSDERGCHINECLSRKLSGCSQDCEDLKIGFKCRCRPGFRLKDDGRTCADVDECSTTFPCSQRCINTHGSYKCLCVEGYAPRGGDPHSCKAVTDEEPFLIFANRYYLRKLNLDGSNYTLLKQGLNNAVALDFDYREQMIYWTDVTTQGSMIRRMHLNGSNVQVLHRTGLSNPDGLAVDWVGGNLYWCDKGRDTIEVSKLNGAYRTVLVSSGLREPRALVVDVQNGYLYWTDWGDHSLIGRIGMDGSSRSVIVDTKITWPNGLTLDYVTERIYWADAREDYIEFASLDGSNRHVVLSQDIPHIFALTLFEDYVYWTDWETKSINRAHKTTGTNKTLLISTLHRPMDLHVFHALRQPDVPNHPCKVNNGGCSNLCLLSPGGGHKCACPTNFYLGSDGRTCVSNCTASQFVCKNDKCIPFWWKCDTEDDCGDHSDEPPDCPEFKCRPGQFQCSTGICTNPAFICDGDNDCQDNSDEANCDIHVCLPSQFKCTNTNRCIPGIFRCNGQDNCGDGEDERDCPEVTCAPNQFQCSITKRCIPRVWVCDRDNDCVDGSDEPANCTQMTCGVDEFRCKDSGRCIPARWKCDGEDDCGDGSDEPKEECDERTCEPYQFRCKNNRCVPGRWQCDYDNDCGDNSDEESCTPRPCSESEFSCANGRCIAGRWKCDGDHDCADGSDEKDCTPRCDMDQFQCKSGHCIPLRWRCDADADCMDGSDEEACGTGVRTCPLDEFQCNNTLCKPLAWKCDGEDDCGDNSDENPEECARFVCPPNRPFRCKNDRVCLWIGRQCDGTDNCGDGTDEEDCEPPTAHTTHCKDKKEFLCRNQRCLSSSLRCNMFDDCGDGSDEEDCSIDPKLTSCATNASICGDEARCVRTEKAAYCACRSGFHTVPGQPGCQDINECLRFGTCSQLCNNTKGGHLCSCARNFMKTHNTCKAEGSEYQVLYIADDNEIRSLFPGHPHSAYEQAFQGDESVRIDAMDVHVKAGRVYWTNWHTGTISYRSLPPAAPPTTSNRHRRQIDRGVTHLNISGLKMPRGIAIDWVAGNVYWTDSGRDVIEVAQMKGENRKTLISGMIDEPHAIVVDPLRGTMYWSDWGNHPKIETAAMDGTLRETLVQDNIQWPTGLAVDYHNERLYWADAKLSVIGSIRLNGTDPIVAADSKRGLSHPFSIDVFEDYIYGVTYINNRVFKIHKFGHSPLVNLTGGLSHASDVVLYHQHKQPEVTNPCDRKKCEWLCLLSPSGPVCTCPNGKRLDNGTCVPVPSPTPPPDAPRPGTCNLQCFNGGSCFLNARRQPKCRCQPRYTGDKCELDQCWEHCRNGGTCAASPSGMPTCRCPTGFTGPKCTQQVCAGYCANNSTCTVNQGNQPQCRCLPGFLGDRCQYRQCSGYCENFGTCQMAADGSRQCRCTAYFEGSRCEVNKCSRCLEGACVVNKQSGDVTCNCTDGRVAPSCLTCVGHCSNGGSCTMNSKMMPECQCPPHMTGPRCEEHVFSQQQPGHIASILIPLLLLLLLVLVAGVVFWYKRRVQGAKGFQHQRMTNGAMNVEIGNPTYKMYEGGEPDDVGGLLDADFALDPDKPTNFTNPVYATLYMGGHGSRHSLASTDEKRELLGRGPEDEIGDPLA

On to 2N4R tau (from UniProt P10636), for which the Kd is 60 nM.
